Assay results as given in patent US12098186 (NATIONAL TECHNOLOGY AND ENGINEERING SOLUTIONS OF SANDIA, dated 2024).
Where two headings read alike, the source gives them in different places.

How the values were obtained:
[1] = target: T1, SARS-CoV-2 receptor-binding domain (RBD) of the spike protein (SARS-CoV-2, UniProt P0DTC2 319-541)
[2] = target: T1, SARS-CoV-2 receptor-binding domain …; remark: listed apart in the source
[3] = target: T1, SARS-CoV-2 receptor-binding domain …; assay: cell-based or functional assay
[4] = target: T1, SARS-CoV-2 receptor-binding domain …; remark: listed apart in the source
[5] = target: T1, SARS-CoV-2 receptor-binding domain …; remark: listed apart in the source

B1: SP1B4-U biparatopic nanobody construct (SP1B4 and U nanobodies on heterodimeric human IgG1 Fc) (bispecific antibody, V domains shown, not shown: a dimerising Fc or GST)
V domain 1: EVQLQASGGGFVQPGGSLRLSCAASGRAFGIYRMGWFRQAPGKEREFVSAISGGDAGHTRYADSVKGRFTISRDNSKNTVYLQMNSLRAEDTATYYCAYWDYNGVVPFFKYWGQGTQVTVSS
V domain 2: QVQLVESGGGLVQPGGSLRLSCAASGFTLDYYAIGWFRQAPGKEREGVSCISSSGGSTHFADSVKGRFTISRDNAKNTVYLQMNSLIPEDTAVYYCAAQSGSYYWCGSDWHEYEYWGQGTQVTVSS
- Kd [1]: 2.2 nM
- Kd [2]: 2.2 nM
- Neutralization EC50 [3]: 0.025 nM

B2: SP1D9-U biparatopic nanobody construct (SP1D9 and U nanobodies on heterodimeric human IgG1 Fc) (bispecific antibody, V domains shown, not shown: a dimerising Fc or GST)
V domain 1: EVQLQASGGGFVQPGGSLRLSCAASGRYDSYVRMGWFRQAPGKEREFVSAISGGGDKSTWYADSVKGRFTISRDNSKNTVYLQMNSLRAEDTATYYCANAQLGPAYDKIGYWGQGTQVTVSS
V domain 2: B1 V domain 2
- Kd [4]: 2 nM

B3: SP3H4-U biparatopic nanobody construct (SP3H4 and U nanobodies on heterodimeric human IgG1 Fc) (bispecific antibody, V domains shown, not shown: a dimerising Fc or GST)
V domain 1: EVQLQASGGGFVQPGGSLRLSCAASGTAYGWSRMGWFRQAPGKEREFVSAISRASAGYAQYADSVKGRFTISRDNSKNTVYLQMNSLRAEDTATYYCAFPLHDQGEPYGWYWGQGTQVTVSS
V domain 2: B1 V domain 2
- Kd [1]: 0.79 nM
- Kd [5]: 0.79 nM
- Neutralization EC50 [3]: 0.023 nM
